Data published in patent publication US20250000946A1 (WUXI BIOLOGICS IRELAND, published 2025).
Where two headings read alike, the source gives them in different places.

Key:
[1] = target: T1, Human IL-2Rβ/γ (intermediate affinity IL-2 receptor) (human, UniProt P14784 27-551; P31785 23-369); assay: FACS, HH cells
T1 construct: whole, on cells; also called IL-2Rβ/γc; IL-2Rβ (CD122) and γ (CD132)
T1 sequence (looked up) 1: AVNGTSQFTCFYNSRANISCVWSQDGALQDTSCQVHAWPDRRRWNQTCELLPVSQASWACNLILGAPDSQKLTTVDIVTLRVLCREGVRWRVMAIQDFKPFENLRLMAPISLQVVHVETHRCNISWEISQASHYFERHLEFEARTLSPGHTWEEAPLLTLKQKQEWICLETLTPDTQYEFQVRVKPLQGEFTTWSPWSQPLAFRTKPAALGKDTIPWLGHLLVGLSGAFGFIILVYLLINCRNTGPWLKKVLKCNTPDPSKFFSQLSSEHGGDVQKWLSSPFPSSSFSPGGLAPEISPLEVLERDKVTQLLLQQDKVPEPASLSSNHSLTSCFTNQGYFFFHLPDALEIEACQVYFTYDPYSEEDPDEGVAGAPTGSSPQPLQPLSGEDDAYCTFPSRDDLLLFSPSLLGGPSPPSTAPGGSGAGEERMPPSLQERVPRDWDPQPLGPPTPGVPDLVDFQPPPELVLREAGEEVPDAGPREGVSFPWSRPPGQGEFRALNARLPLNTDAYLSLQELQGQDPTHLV
T1 sequence (looked up) 2: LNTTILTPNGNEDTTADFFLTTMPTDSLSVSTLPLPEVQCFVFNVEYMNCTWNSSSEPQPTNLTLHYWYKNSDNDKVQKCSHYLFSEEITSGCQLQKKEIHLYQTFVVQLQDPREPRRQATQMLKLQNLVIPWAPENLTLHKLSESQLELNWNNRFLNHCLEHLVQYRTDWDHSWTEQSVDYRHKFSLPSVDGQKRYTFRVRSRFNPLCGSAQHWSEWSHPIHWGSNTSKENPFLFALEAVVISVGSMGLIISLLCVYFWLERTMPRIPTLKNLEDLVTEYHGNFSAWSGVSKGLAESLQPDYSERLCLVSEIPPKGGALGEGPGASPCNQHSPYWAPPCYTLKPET
In short: (§1)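 Readout is median fluorescence intensity by FACS after PE-anti-human Fc detection of IL-2/Fc fusion proteins bound to cells. Binding was done for 30 min at 4° C. to avoid internalization, with secondary staining for a further 30 min at 4° C.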

[2] = target: T1, Human IL-2Rβ/γ (intermediate affinity …); assay: FACS, HH cells; remark: listed apart in the source
Protocol: (§2) Human cutaneous T cell lymphoma HH cells, malignant non-Hodgkin's lymphoma NK92 cells and cutaneous T cell lymphoma MJ20 cells were used for binding assay. They both constitutively express IL-2Rβ (CD122) and […] (CD132), and NK92 and MJ20 also expresses IL-2Rα (CD25). HH, NK92 and MJ20 cells were cultured following ATCC guidance, then transferred to a 96-plate for binding analysis. Cells were incubated with IL-2/Fc fusion proteins at the indicated concentrations for 30 min at 4° C. to avoid internalization. Binding was detected by 2nd antibody of PE-anti-human Fc at 4° C. for another 30 min. The median fluorescence intensity (MFI) on HH and NK92 cells was measured using FACS.
(§3) IL-2 variants of T2U0.E44-6 and T2U0.E44-26 were used to construct bivalent variants W3XX115-T2.Z20-1.uIgG4V322 and W3XX115-T2.Z20-2.uIgG4V322 respectively.

[3] = target: T1, Human IL-2Rβ/γ (intermediate affinity …); assay: cell-based or functional assay
[4] = target: T1, Human IL-2Rβ/γ (intermediate affinity …); assay: cell-based or functional assay; remark: listed apart in the source
[5] = target: T1, Human IL-2Rβ/γ (intermediate affinity …); assay: FACS, HH cells; EC50 fold vs T2U0.E44-1
In short: as §1

[6] = target: T1, Human IL-2Rβ/γ (intermediate affinity …); assay: FACS, HH cells; EC50 fold vs T2U0.E44-1; remark: listed apart in the source
Protocol: as §2, §3

[7] = target: T2, W369-hPro2.ECD.His, IL2Rβ ECD (human, UniProt P14784 27-239); assay: SPR Biacore 8K; set-up for IL-2Rβ not described
T2 construct: Entry includes linker and C-terminal 6xHis tag; also called CD122
T2 sequence: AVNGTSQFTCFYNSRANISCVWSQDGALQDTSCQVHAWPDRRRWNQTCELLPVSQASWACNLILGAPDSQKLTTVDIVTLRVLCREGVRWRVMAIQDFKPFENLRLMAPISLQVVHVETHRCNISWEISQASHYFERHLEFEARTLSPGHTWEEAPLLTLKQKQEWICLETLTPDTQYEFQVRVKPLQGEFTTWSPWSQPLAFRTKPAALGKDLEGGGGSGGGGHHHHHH

[8] = target: T3, W3XX115-hPro1.ECD.His, IL2Rα ECD (Homo sapiens (Human), UniProt P01589 22-213); assay: SPR Biacore 8K; variant captured on anti-human Fc chip, IL-2Rα ECD-His injected
T3 construct: Entry includes the C-terminal 6xHis tag; also called CD25
T3 sequence: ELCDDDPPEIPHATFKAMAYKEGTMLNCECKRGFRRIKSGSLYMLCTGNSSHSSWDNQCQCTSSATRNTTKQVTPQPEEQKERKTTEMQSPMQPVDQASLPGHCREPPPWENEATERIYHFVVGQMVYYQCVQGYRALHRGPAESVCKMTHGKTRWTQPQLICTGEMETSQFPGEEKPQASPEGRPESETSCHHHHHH
Protocol: (§4) IL-2 variants binding affinity to IL-2 receptor were detected by SPR using Biacore 8K. For IL-2Rα binding assay, each variant was captured on anti-human Fc immobilized CM5 sensor chip (cytiva). W3XX115-hPro1.ECD.His at different concentrations were injected over the sensor chip at a flow rate of 30 uL/min for an association phase of 60 s, followed by 90 s dissociation. The chip was then regenerated by 10 mM Glycine-HCl pH1.5 after each binding cycle. For IL-2Rγ binding assay, IL-2 variants were mixed with W369-hPro2.ECD.His as 1:1 before assay, were detected by SPR using Biacore 8K. W3XX115-hPro1.ECD.His was captured on anti-His immobilized CM5 sensor chip (cytiva). The mixture were injected over the sensor chip as described above. The sensorgrams of blank surface and buffer channel were subtracted from the test sensorgrams. The experimental data was fitted by steady state affinity model. Molecular weight of W3XX115-hPro1.ECD.His or W369-hPro1.ECD.His was used to calculate the molar concentration of analyte.
(§5) For T3U0.E44-1 and T2U0.E44-33, no binding to IL-2Rα was detected.

[9] = target: T4, W369-hPro1.ECD.His, IL-2Rγ ECD (human, UniProt P31785 23-254); assay: SPR Biacore 8K; variant pre-mixed 1:1 with IL-2Rβ ECD-His, injected over captured IL-2Rγ ECD-His
T4 construct: Entry includes linker and C-terminal 6xHis tag; also called IL-2Rγc; CD132
T4 sequence: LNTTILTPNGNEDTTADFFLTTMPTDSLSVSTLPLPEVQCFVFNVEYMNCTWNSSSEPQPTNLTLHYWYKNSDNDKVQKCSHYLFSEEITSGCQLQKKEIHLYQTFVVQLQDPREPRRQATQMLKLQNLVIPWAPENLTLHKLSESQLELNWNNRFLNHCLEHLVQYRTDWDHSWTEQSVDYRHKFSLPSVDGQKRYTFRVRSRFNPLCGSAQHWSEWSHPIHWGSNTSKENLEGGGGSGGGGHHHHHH
Protocol: as §4, §5

EC50 [1]: 64.1 nM
EC50 [2]: 29.3 nM
Human CD8+ T Potency EC50 (STAT5 phosphorylation) [3]: 7.87 nM
Human CD8+ T Potency reduction [3]: 2.2 fold
Potency EC50, STAT5 phosphorylation in CD8+ T (column headed Human Treg) [4]: 11.7 nM
Potency reduction, CD8+ T (column headed Human Treg) [4]: 1 fold
Affinity reduction [5]: 1.3 fold
Affinity reduction [6]: 0.9 fold
Kd [7]: 2260 nM
binding result [8]: no binding
binding result [9]: binds
B1: W3XX115-T3U0.E44-1.uIgG4V322 (Fc fusion)
chain: APTSSSTKKTQLQLEHLLLDLQMILNGINNYKNPKLTRMLTAKFAMPKKATELKHLQCLEEELKPLEEVLNGAQSKNFHLRPRDLISNINVIVLELKGSETTFMCEYADETATIVEFLNRWITFCQSIISTLTESKYGPPCPPCPAPEAAGGPSVFLFPPKPKDTLMISRTPEVTCVVVDVSQEDPEVQFNWYVDGVEVHNAKTKPREEQFNSTYRVVSVLTVLHQDWLNGKEYKCKVSNKGLPSSIEKTISKAKGQPREPQVYTLPPCQEEMTKNQVSLWCLVKGFYPSDIAVEWESNGQPENNYKTTPPVLDSDGSFFLYSRLTVDKSRWQEGNVFSCSVMHEALHNHYTQKSLSLSLG
heavy: EIQLQQSGPELVKPGASVKVSCKASGYSFTDYNMYWVKQSHGESLEWIGYIDPYNGGTRYNQKFKGKATLTVDKSSSTAFMHLNSLTSEDSAVYYCARNGHWDGAWFAYWGQGTLVTVSAASTKGPSVFPLAPCSRSTSESTAALGCLVKDYFPEPVTVSWNSGALTSGVHTFPAVLQSSGLYSLSSVVTVPSSSLGTKTYTCNVDHKPSNTKVDKRVESKYGPPCPPCPAPEAAGGPSVFLFPPKPKDTLMISRTPEVTCVVVDVSQEDPEVQFNWYVDGVEVHNAKTKPREEQFNSTYRVVSVLTVLHQDWLNGKEYKCKVSNKGLPSSIEKTISKAKGQPREPQVCTLPPSQEEMTKNQVSLSCAVKGFYPSDIAVEWESNGQPENNYKTTPPVLDSDGSFFLVSRLTVDKSRWQEGNVFSCSVMHEALHNHYTQKSLSLSLG
light: DIQMNQSPSSLSASLGDTITITCHASQNINVWLSWYQQKPGNIPKLLIYKASNLHTGVPSRFSGSRSGTGFTLTISSLQPEDIATYYCHQGQSYPFTFGSGTKLEIKRTVAAPSVFIFPPSDEQLKSGTASVVCLLNNFYPREAKVQWKVDNALQSGNSQESVTEQDSKDSTYSLSSTLTLSKADYEKHKVYACEVTHQGLSSPVTKSFNRGEC
notes: E44 format, IgG4 FALA; also called non-α IL-2
